Data set [1] concerns the target Sdo1 (Saccharomyces cerevisiae) (UniProt Q07953). The data set can be described thus: ITC. As to conditions: cited from earlier work.
Data set [2] can be described thus: Enzyme kinetics of GTP hydrolysis (PNP coupled assay, Michaelis–Menten). The data set is classed as biochemical, Saccharomyces cerevisiae. As to conditions: isolated enzyme. The protocol:
(§1) Finally, we measured the enzyme kinetics of mutant Efl1 R1086Q as an isolated enzyme and bound to Sdo1 using an enzymatic coupled assay with a purine nucleoside phosphorylase (PNP) enzyme. This analysis was extended to another disease mutation (EFL1 M882K) also located in domain IV of the GTPase using the equivalent yeast variant, Efl1 L910K [17]. The Km and kcat kinetic parameters were calculated using non-linear regression assuming a Michaelis–Menten model (Supplementary Table S1). […] The catalytic constant for mutant R1086Q and the wild-type enzyme consisted of 0.67 min^−1, and it was 0.58 min^−1 for mutant Efl1 L910K. […] In line with the proposed role of Sdo1 as a guanine exchange factor of Efl1, previous results have shown that the interaction of wild-type Efl1 with Sdo1 impacted its Km for GTP, decreasing its value 2–3-fold. The Km values for the complexes formed between Sdo1 and Efl1 mutants decreased by half with respect to their cognate-free counterpart and differed from each other. […] The measured Km value comprises all the microscopic rate constants of the individual reactions occurring in the enzyme, which include the binding to the substrate and product and the corresponding conformational changes.
Hydrolysis of GTP was measured using the Enzchek Phosphate Assay kit (Molecular Probes) as described by Webb. Standard reactions consisted of 100 µL containing 6 µM of Efl1 R1086Q and Efl1 L910K, 0.3 mM MESG, 1.0 U purine nucleoside phosphorylase (PNP) and the indicated amounts of GTP. Measurements done in the presence of effector protein contained 25 µM of Sdo1.
The reaction buffer consisted of 50 mM HEPES -KOH pH 7.5, 150 mM NaCl, 5 mM MgCl2.
Reactions were initiated and the GTPase was added after 3 min. Time courses were followed by recording the change in absorbance at 360 nm in a Cary 60 UV -Vis spectrophotometer (Agilent Technologies). Background absorbance was recorded prior to the addition of the GTPase and subtracted from the sample signals. The slope of the measured time courses corresponded to the GTP hydrolysis rate. The concentration of releas ed phosphate was estimated using a molar absorption coefficient at 360 nm of 14,386 M -1 cm-1 previously described in [2]. Data were analysed by nonlinear regression to the M ichaelis-Menten equation with the program Origin Version 5.0 (OriginLab, Co., Northampton, MA). […]
M HEPES-KOH pH 7.4, 2.5 mM magnesium acetate, 50 mM sucrose, 2 mM DTT, 0.1 mM PMSF, 0.1 mM benzamidine, 8 mM putrescine, 1 mM spermidine. […]
Dilution at the end of each titration was no longer than 2.5% of the initial volume. Data were corrected for the background signal by subtracting the fluorescence of the same ligand concentration without the GTPase in the reaction mixture.
(§2) Maximum emission at 440 nm was replotted as a function of nucleotide concentration and analysed

The test system of data set [3] is Tif6 bound to 60S subunits. Kind of data set: Tif6 release assay with purified yeast components. The data set is classed as biochemical, Saccharomyces cerevisiae. As to conditions: 50 nM Efl1 variant, 50 nM Sdo1, 100 µM GTP, 30 °C, 10 min. The protocol: The release of Tif6 (yeast orthologue of eIF6) was performed as previously described in [3, 15]. Reaction mixtures contained 10 nM 60S subunits, 40 nM Tif6, 50 nM Efl1 variant, 50 nM Sdo1, and 100 µM GTP in buffer of 10 mM Tris-HCl at pH 7.4, 75 mM KCl, and 1.5 mM MgCl2 supplemented with RNAse inhibitors (Promega, Madison, WI, USA) and protease inhibitors free of EDTA (GoldBio, St. Louis, MO, USA). GTP was omitted in the negative control, and 50 mM EDTA was added as the positive control to disassemble the 60S ribosomal subunits. Reaction mixtures of 100 µL were incubated at 30 °C for 10 min and added on top of 150 µL of a 30% sucrose cushion prepared in the same buffer. Samples were centrifuged at 476,000× g for 30 min in an Optima tabletop MX ultracentrifuge with a TLA-100 rotor. The top 200 µL (free fraction) was recovered, and the remaining 50 µL was resuspended in 150 µL of the same buffer. Samples were precipitated with 30% trichloroacetic acid, electrophoresed in 10% Tris-glycine SDS-PAGE, transferred to a PVDF membrane, and immunoblotted with antibodies anti-eIF6 (PA531066; Thermo Scientific; dilution 1:3000) and anti-uL3 (OAAB09713; Aviva Systems Biology, San Diego, CA, USA; dilution 1:500) overnight at 4 °C. […] Signals were quantified using programme Image J version 1.8.0. […]

Substrate in data set [4]: Nc1nc2c(ncn2[C@@H]2O[C@H](COP(=O)(O)OP(=O)(O)OP(=O)(O)O)[C@@H](O)[C@H]2O)c(=O)[nH]1
The data set can be described thus: GTP hydrolysis by PNP-coupled Enzchek phosphate assay (MESG, 360 nm), pH 7.5, 5 mM MgCl2, 6 µM Efl1 alone, Michaelis-Menten fit. As to conditions: 25.0 °C. It is filed as biochemical. The protocol: as §1
Hydrolysis of GTP was measured using the Enzchek Phosphate Assay kit (Molecular Probes) as described by Webb. […]
Reactions were initiated and the GTPase was added after 3 min. Time courses were followed by recording the change in absorbance at 360 nm in a Cary 60 UV -Vis spectrophotometer (Agilent Technologies). Background absorbance was recorded prior to the addition of the GTPase and subtracted from the sample signals. The slope of the measured time courses corresponded to the GTP hydrolysis rate. […] Data were analysed by nonlinear regression to the M ichaelis-Menten equation with the program Origin Version 5.0 (OriginLab, Co., Northampton, MA). […]
as §2

Sequence of Sdo1 (Saccharomyces cerevisiae) (Q07953 whole entry): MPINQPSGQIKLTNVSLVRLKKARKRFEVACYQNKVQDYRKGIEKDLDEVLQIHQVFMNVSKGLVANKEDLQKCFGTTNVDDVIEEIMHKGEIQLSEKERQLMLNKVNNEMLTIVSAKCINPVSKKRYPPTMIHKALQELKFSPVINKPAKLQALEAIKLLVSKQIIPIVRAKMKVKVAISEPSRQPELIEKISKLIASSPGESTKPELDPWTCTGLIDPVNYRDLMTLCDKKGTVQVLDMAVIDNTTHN

As to Efl1 (from UniProt P53893), the Kd in data set [1] was 300 nM.

B1: Efl1 R1086Q (Saccharomyces cerevisiae S288C; R1086Q) (protein)
chain: MPRVESETYKRLQNDPSCIRNICIVAHVDHGKTSLSDSLLASNGIISQRLAGKIRFLDARPDEQLRGITMESSAISLYFRVLRKQEGSDEPLVSEHLVNLIDSPGHIDFSSEVSAASRLCDGAVVLVDVVEGVCSQTVTVLRQCWTEKLKPILVLNKIDRLITELQLTPQEAYIHLSKVIEQVNSVIGSFFANERQLDDLFWREQLEKNENAEYIEKDDSGIYFNPTDNNVIFASAIDGWGFNIGQLAKFYEQKLGAKRENLQKVLWGDFYMDPKTKKIINNKGLKGRSLKPLFTSLILENIWKIYQNIITSRDSEMVEKIAKTLNIKLLARDLRSKDDKQLLRTIMGQWLPVSTAVLLTVIEKLPSPLESQTDRLNTILVSESDTAAMDPRLLKAMKTCDKEGPVSAYVSKMLSIPREELPVESKRIASSDELMERSRKAREEALNAAKHAGMVENMAMMDLNDNSKNTSDLYKRAKDTVMTPEVGEQTKPKPSRNNDVFCVVSEPSSALDLEFEYEGEDDSDSQDNFGLDFVPTDIDPNDPLSSMFEYEEEDPLLESIKQISEDVNDEVDDIFDEKEECLVAFARIYSGTLRVGQEISVLGPKYDPKCPEEHIETAIITHLYLFMGKELVPLDVCPSGNIVGIRGLAGKVLKSGTLIEKGVQGVNLAGVNFHFTPIVRVAVEPANPVEMSKLVRGLKLLDQADPCVHTYVENTGEHILCTAGELHLERCLKDLTERFAGIEITHSEPAIPYRETFLSASDMNPPQNSQLGRGVHELLLSQYKITFRTFPLSGKVTDFLSQHQNSIKNILKTSTSSMDPVIESTGSSFLDKKSLLVAFEEVINQEEKSRELLSGFKVKLAGFGPSRVGCNILLSQDNLLGSLFEGTPAAFEYSDSIKNGFQLAVSEGPLANEPVQGMCVLVESVHKMSQDEIESIEDPRYQQHIVDLSGRLITSTRDAIHEAFLDWSPRIMWAIYSCDIQTSVDVLGKVYAVILQRHGKIISEEMKEGTPFFQIEAHVPVVEAFGLSEDIRKRTSGAAQPQLVFSGFECIDLDPFWVPTTEEELEELGDTADRENIARKHMNAIQRRKGLFIEEKVVENAEKQRTLKKN
notes: recombinantly expressed in S. cerevisiae; isolated GTPase
Take B1: the kcat in data set [2] was 0.0112 s⁻¹. For the same molecule, in data set [3], the “release of Tif6 from the 60S subunit (distribution of Tif6 in free and bound fraction, immunoblot)” value is recorded as “reduced portion of Tif6 in the free fraction compared with that for the wild type”. In data set [4], the Michaelis constant (Km) is 146 µM.

The record behind these values is paper PMC9405973, “Altered Conformational Landscape upon Sensing Guanine Nucleotides in a Disease Mutant of Elongation Factor-like 1 (EFL1) GTPase” (Biomolecules, 2022).
